Tested on: Escherichia coli TOP10
Assay: shrunken log2 fold change of peptide-encoding DNA abundance (4.5 h post-induction vs induction); higher = less antimicrobial activity (less host growth inhibition)
Conditions: time post-induction: 4.5 h; library: site-saturation at positions 5, 18, 19, 20
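Note: peptides expressed intracellularly from a pBAD plasmid library in pooled LB shake-flask culture, induced with 0.3% L-arabinose, DNA abundance read by NGS, three biological replicates, DESeq2 with apeglm shrinkage.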

Point of comparison: RRIRDRPPRLPRPRPRPWRWPRP, “shrunken log2 fold change” value 0.196. Against it:
- RRIRCRPPRLPRPRPRPTYKPRP — lower, -0.267
- RRIRTRPPRLPRPRPRPRMYPRP — within 0.2 log units, 0.0541
- RRIRPRPPRLPRPRPRPTNWPRP — within 0.2 log units, 0.214
- RRIRTRPPRLPRPRPRPFDIPRP — lower, -0.018
- RRIRARPPRLPRPRPRPPPCPRP — higher, 0.979
- RRIRFRPPRLPRPRPRPARSPRP — within 0.2 log units, 0.336
- RRIRVRPPRLPRPRPRPNDGPRP — lower, -0.133
- RRIRPRPPRLPRPRPRPTRHPRP — higher, 0.43
- RRIRTRPPRLPRPRPRPPGLPRP — higher, 1.11
- RRIRRRPPRLPRPRPRPQSPPRP — within 0.2 log units, 0.281
- RRIRVRPPRLPRPRPRPECQPRP — within 0.2 log units, 0.353
- RRIRRRPPRLPRPRPRPRSTPRP — within 0.2 log units, 0.36
- RRIRSRPPRLPRPRPRPDWLPRP — within 0.2 log units, 0.153
- RRIRLRPPRLPRPRPRPMLFPRP — lower, -0.136
- RRIRPRPPRLPRPRPRPWWEPRP — within 0.2 log units, 0.0134
- RRIRKRPPRLPRPRPRPEKHPRP — higher, 0.401
- RRIRVRPPRLPRPRPRPAKKPRP — within 0.2 log units, 0.0179
- RRIRDRPPRLPRPRPRPMIPPRP — lower, -0.184
- RRIRCRPPRLPRPRPRPEVQPRP — within 0.2 log units, 0.267
- RRIRPRPPRLPRPRPRPRAQPRP — within 0.2 log units, 0.33
- RRIRARPPRLPRPRPRPVKIPRP — within 0.2 log units, 0.0527
- RRIRTRPPRLPRPRPRPESCPRP — within 0.2 log units, 0.145
- RRIRDRPPRLPRPRPRPCRDPRP — lower, -0.106
- RRIRSRPPRLPRPRPRPSQVPRP — lower, -0.323
- RRIRFRPPRLPRPRPRPDIHPRP — lower, -0.268
- RRIRFRPPRLPRPRPRPFSGPRP — lower, -0.0879
- RRIRNRPPRLPRPRPRPKAAPRP — higher, 3.06
- RRIRVRPPRLPRPRPRPKRVPRP — within 0.2 log units, 0.0344
- RRIRQRPPRLPRPRPRPWGTPRP — lower, -0.239
- RRIRPRPPRLPRPRPRPHMDPRP — lower, -0.374
- RRIRNRPPRLPRPRPRPDPCPRP — lower, -0.145
- RRIRSRPPRLPRPRPRPWCDPRP — lower, -0.238
- RRIRRRPPRLPRPRPRPTCIPRP — lower, -0.123
- RRIRDRPPRLPRPRPRPSFVPRP — lower, -0.0915
- RRIRVRPPRLPRPRPRPRTIPRP — lower, -0.0961
- RRIRCRPPRLPRPRPRPDMKPRP — lower, -0.996
- RRIRWRPPRLPRPRPRPDHVPRP — lower, -0.13
- RRIRQRPPRLPRPRPRPMLYPRP — lower, -0.282
- RRIRCRPPRLPRPRPRPKNYPRP — lower, -0.676
- RRIRVRPPRLPRPRPRPSDQPRP — lower, -0.669
- RRIRMRPPRLPRPRPRPCVAPRP — higher, 0.764
- RRIRWRPPRLPRPRPRPSLCPRP — within 0.2 log units, 0.384
- RRIRARPPRLPRPRPRPYWMPRP — lower, -0.275
- RRIRWRPPRLPRPRPRPCVEPRP — within 0.2 log units, 0.153
- RRIRFRPPRLPRPRPRPMDSPRP — lower, -0.398
- RRIRFRPPRLPRPRPRPGDMPRP — lower, -0.311
- RRIRHRPPRLPRPRPRPETRPRP — within 0.2 log units, 0.013
- RRIRLRPPRLPRPRPRPLHFPRP — lower, -0.197
- RRIRGRPPRLPRPRPRPRHQPRP — within 0.2 log units, 0.026
- RRIRQRPPRLPRPRPRPSCNPRP — lower, -0.683
- RRIRLRPPRLPRPRPRPFPTPRP — lower, -0.158
- RRIRLRPPRLPRPRPRPVCGPRP — within 0.2 log units, 0.227
- RRIRRRPPRLPRPRPRPSQEPRP — lower, -0.225
- RRIRNRPPRLPRPRPRPPCRPRP — lower, -0.0266
- RRIRVRPPRLPRPRPRPHARPRP — within 0.2 log units, 0.0538
- RRIRKRPPRLPRPRPRPGMMPRP — within 0.2 log units, 0.308
- RRIRARPPRLPRPRPRPVYYPRP — lower, -0.518
- RRIRSRPPRLPRPRPRPRCGPRP — within 0.2 log units, 0.34
- RRIRVRPPRLPRPRPRPSGYPRP — lower, -0.28
- RRIRNRPPRLPRPRPRPGMWPRP — higher, 0.397
- RRIRKRPPRLPRPRPRPTGEPRP — higher, 0.954
- RRIRIRPPRLPRPRPRPSSGPRP — lower, -0.219
- RRIRVRPPRLPRPRPRPTMVPRP — within 0.2 log units, 0.0376
- RRIRERPPRLPRPRPRPMALPRP — lower, -0.0232
- RRIRQRPPRLPRPRPRPLWGPRP — lower, -0.0254
- RRIRWRPPRLPRPRPRPDETPRP — within 0.2 log units, 0.0169
- RRIRWRPPRLPRPRPRPDYYPRP — lower, -0.218
- RRIRHRPPRLPRPRPRPFTEPRP — within 0.2 log units, 0.00246
- RRIRDRPPRLPRPRPRPVGGPRP — higher, 2.15
- RRIRDRPPRLPRPRPRPEIGPRP — higher, 0.765
- RRIRMRPPRLPRPRPRPLYMPRP — lower, -0.222
- RRIRGRPPRLPRPRPRPLQFPRP — within 0.2 log units, 0.312
- RRIRYRPPRLPRPRPRPLQDPRP — within 0.2 log units, 0.0382
- RRIRIRPPRLPRPRPRPIYMPRP — within 0.2 log units, 0.00602
- RRIRCRPPRLPRPRPRPTCEPRP — within 0.2 log units, 0.142
- RRIRFRPPRLPRPRPRPSQDPRP — within 0.2 log units, 0.0128
- RRIRIRPPRLPRPRPRPNPVPRP — within 0.2 log units, 0.087
- RRIRTRPPRLPRPRPRPGYHPRP — lower, -0.315
- RRIRYRPPRLPRPRPRPLQPPRP — lower, -0.499
- RRIRCRPPRLPRPRPRPMCAPRP — within 0.2 log units, 0.0886
- RRIRQRPPRLPRPRPRPEWRPRP — within 0.2 log units, -0.00139
- RRIRCRPPRLPRPRPRPRGLPRP — within 0.2 log units, 0.331
- RRIRNRPPRLPRPRPRPEQVPRP — within 0.2 log units, 0.0249
- RRIRCRPPRLPRPRPRPNEEPRP — lower, -0.00783
- RRIRQRPPRLPRPRPRPDKDPRP — lower, -0.0597
- RRIRDRPPRLPRPRPRPKNWPRP — higher, 2.51
- RRIRIRPPRLPRPRPRPFYEPRP — lower, -0.231
- RRIRCRPPRLPRPRPRPIETPRP — lower, -0.0366
- RRIRSRPPRLPRPRPRPITRPRP — lower, -0.221
- RRIRDRPPRLPRPRPRPIIDPRP — lower, -0.02
- RRIRMRPPRLPRPRPRPHRMPRP — lower, -0.0254
- RRIRCRPPRLPRPRPRPKILPRP — lower, -0.0835
- RRIRERPPRLPRPRPRPMCCPRP — lower, -0.113
- RRIRWRPPRLPRPRPRPYILPRP — lower, -0.849
- RRIRARPPRLPRPRPRPTNRPRP — within 0.2 log units, 0.05
- RRIRKRPPRLPRPRPRPQLWPRP — higher, 0.539
- RRIRERPPRLPRPRPRPSCTPRP — lower, -0.815
- RRIRSRPPRLPRPRPRPPKVPRP — lower, -0.211
- RRIRSRPPRLPRPRPRPPQQPRP — within 0.2 log units, 0.38
- RRIRFRPPRLPRPRPRPRRRPRP — higher, 0.658
- RRIRVRPPRLPRPRPRPRTMPRP — within 0.2 log units, 0.0485
- RRIRCRPPRLPRPRPRPNERPRP — within 0.2 log units, 0.0333
- RRIRVRPPRLPRPRPRPPNYPRP — lower, -0.194
- RRIRIRPPRLPRPRPRPETMPRP — lower, -0.108
- RRIRYRPPRLPRPRPRPRAIPRP — lower, -0.36
- RRIRMRPPRLPRPRPRPFKTPRP — lower, -0.117
- RRIRARPPRLPRPRPRPVSFPRP — within 0.2 log units, 0.368
- RRIRDRPPRLPRPRPRPSWGPRP — within 0.2 log units, 0.0384
- RRIRQRPPRLPRPRPRPFYDPRP — lower, -0.208
- RRIRQRPPRLPRPRPRPWNPPRP — lower, -0.0759
- RRIRFRPPRLPRPRPRPCQNPRP — within 0.2 log units, 0.0482
- RRIRARPPRLPRPRPRPQNKPRP — lower, -0.232
- RRIRKRPPRLPRPRPRPYWPPRP — within 0.2 log units, -0.000778
- RRIRPRPPRLPRPRPRPKYIPRP — lower, -0.433
- RRIRKRPPRLPRPRPRPGWKPRP — within 0.2 log units, 0.0274
- RRIRYRPPRLPRPRPRPLQNPRP — within 0.2 log units, 0.0956
- RRIRYRPPRLPRPRPRPRDEPRP — within 0.2 log units, 0.047
- RRIRGRPPRLPRPRPRPENAPRP — higher, 1.03
- RRIRTRPPRLPRPRPRPFAFPRP — within 0.2 log units, 0.0192
- RRIRQRPPRLPRPRPRPMGLPRP — lower, -0.0103
- RRIRLRPPRLPRPRPRPMWQPRP — within 0.2 log units, 0.0197
- RRIRYRPPRLPRPRPRPPTMPRP — lower, -0.352
- RRIRRRPPRLPRPRPRPPICPRP — within 0.2 log units, 0.152
- RRIRMRPPRLPRPRPRPTYAPRP — within 0.2 log units, 0.0341
- RRIRPRPPRLPRPRPRPWVLPRP — lower, -0.0962
- RRIRPRPPRLPRPRPRPGLIPRP — lower, -0.0104
- RRIRWRPPRLPRPRPRPMPRPRP — higher, 0.623
- RRIRFRPPRLPRPRPRPAEVPRP — lower, -0.127
- RRIRMRPPRLPRPRPRPHSQPRP — lower, -0.00628
- RRIRFRPPRLPRPRPRPSMWPRP — lower, -0.579
- RRIRGRPPRLPRPRPRPSFMPRP — within 0.2 log units, 0.0373
- RRIRRRPPRLPRPRPRPLTEPRP — higher, 0.793
- RRIRLRPPRLPRPRPRPCDVPRP — lower, -0.255
- RRIRLRPPRLPRPRPRPRATPRP — within 0.2 log units, 0.228
- RRIRCRPPRLPRPRPRPMDAPRP — lower, -0.0146
- RRIRRRPPRLPRPRPRPIYFPRP — within 0.2 log units, 0.124
- RRIRMRPPRLPRPRPRPSTEPRP — higher, 1.63
- RRIRHRPPRLPRPRPRPQRQPRP — within 0.2 log units, 0.0621
- RRIRYRPPRLPRPRPRPFRNPRP — lower, -0.462
- RRIRVRPPRLPRPRPRPWRIPRP — lower, -0.00931
- RRIRERPPRLPRPRPRPTADPRP — within 0.2 log units, 0.0264
- RRIRCRPPRLPRPRPRPPRPPRP — higher, 0.957
- RRIRFRPPRLPRPRPRPIRFPRP — lower, -0.233
- RRIRCRPPRLPRPRPRPKNNPRP — lower, -0.188
- RRIRMRPPRLPRPRPRPYRKPRP — lower, -0.432
- RRIRKRPPRLPRPRPRPTRTPRP — higher, 0.951
- RRIRNRPPRLPRPRPRPPLNPRP — within 0.2 log units, 0.0798
- RRIRMRPPRLPRPRPRPKPTPRP — within 0.2 log units, 0.266
- RRIRVRPPRLPRPRPRPRCMPRP — lower, -0.23
